The assay deals with T1, laminin-111 (mouse Engelbreth-Holm-Swarm (EHS) laminin) (mouse, UniProt P19137 25-3083; P02469 22-1786; P02468 34-1607).
T1 construct: laminin subunit alpha-1 of laminin-111, mouse EHS laminin; laminin subunit beta-1 of laminin-111, mouse EHS laminin; laminin subunit gamma-1 of laminin-111, mouse EHS laminin; source: bought: ThermoFisher, 23017015 (mouse Engelbreth-Holm-Swarm laminin); copies: + +
Description: ELISA; solid-phase assay: WGA eluates of skeletal muscle diluted 1:50 in TBS coated on polystyrene microplates overnight at 4 °C; Laminin-111 in laminin-binding buffer; bound laminin detected with L9393 and HRP anti-rabbit IgG, absorbance at 490 nm; three replicates for each group. Conditions: one partner purified.

B1: α-dystroglycan (α-DG), wild type, with full-length matriglycan, from control (WT littermate or C57BL/6J) mouse skeletal muscle (receptor, mouse (endogenous in skeletal muscle), UniProt Q62165 28-651, looked up)
chain: HWPSEPSEAVRDWKNQLEASMHSVLSDFQEAVPTVVGIPDGTAVVGRSFRVSIPTDLIASSGEIIKVSAAGKEALPSWLHWDPHSHILEGLPLDTDKGVHYISVSAARLGANGSHVPQTSSVFSIEVYPEDHNEPQSVRAASSDPGEVVPSACAADEPVTVLTVILDADLTKMTPKQRIDLLNRMQSFSEVELHNMKLVPVVNNRLFDMSAFMAGPGNAKKVVENGALLSWKLGCSLNQNSVPDIRGVETPAREGAMSAQLGYPVVGWHIANKKPTLPKRLRRQIHATPTPVTAIGPPTTAIQEPPSRIVPTPTSPAIAPPTETMAPPVRDPVPGKPTVTIRTRGAIIQTPTLGPIQPTRVSEAGTTVPGQIRPTLTIPGYVEPTAVITPPTTTTKKPRVSTPKPATPSTDSSTTTTRRPTKKPRTPRPVPRVTTKAPITRLETASPPTRIRTTTSGVPRGGEPNQRPELKNHIDRVDAWVGTYFEVKIPSDTFYDNEDTTTDKLKLTLKLREQQLVGEKSWVQFNSNSQLMYGLPDSSHVGKHEYFMHATDKGGLSAVDAFEIHVHKRPQGDKAPARFKARLAGDPAPVVNDIHKKIALVKKLAFAFGDRNCSSITLQNITRG
modifications: matriglycan [-GlcA-β1,3-Xyl-α1,3-]n, full length (α-DG of ~150-250 kDa); extensive O-glycosylation
notes: α-dystroglycan, the α-subunit cut from the DG pre-proprotein (Dag1), mouse; also called α-DG (WT)
In the case of B1, the dissociation constant Kd is 0.966 ± 0.069 nM.

B2: α-dystroglycan with the knock-in mutation T190M, from Dag1 T190M mouse skeletal muscle (receptor, UniProt Q62165 28-651, looked up)
chain: HWPSEPSEAVRDWKNQLEASMHSVLSDFQEAVPTVVGIPDGTAVVGRSFRVSIPTDLIASSGEIIKVSAAGKEALPSWLHWDPHSHILEGLPLDTDKGVHYISVSAARLGANGSHVPQTSSVFSIEVYPEDHNEPQSVRAASSDPGEVVPSACAADEPVTVLMVILDADLTKMTPKQRIDLLNRMQSFSEVELHNMKLVPVVNNRLFDMSAFMAGPGNAKKVVENGALLSWKLGCSLNQNSVPDIRGVETPAREGAMSAQLGYPVVGWHIANKKPTLPKRLRRQIHATPTPVTAIGPPTTAIQEPPSRIVPTPTSPAIAPPTETMAPPVRDPVPGKPTVTIRTRGAIIQTPTLGPIQPTRVSEAGTTVPGQIRPTLTIPGYVEPTAVITPPTTTTKKPRVSTPKPATPSTDSSTTTTRRPTKKPRTPRPVPRVTTKAPITRLETASPPTRIRTTTSGVPRGGEPNQRPELKNHIDRVDAWVGTYFEVKIPSDTFYDNEDTTTDKLKLTLKLREQQLVGEKSWVQFNSNSQLMYGLPDSSHVGKHEYFMHATDKGGLSAVDAFEIHVHKRPQGDKAPARFKARLAGDPAPVVNDIHKKIALVKKLAFAFGDRNCSSITLQNITRG
modifications: matriglycan shorter than wild type (α-DG laminin-binding band at ~100-150 kDa)
notes: α-dystroglycan, the α-subunit cut from the DG pre-proprotein (Dag1), mouse, knock-in T190M (Hara et al., 2011); also called α-DGN mutant (T190M)
For the molecule B2, binding was put at a Kd of 1.9 ± 0.199 nM. Against the preceding molecule, the Kd is about 2-fold higher.

Source of the values: paper doi:10.1101/2022.08.09.502851, “Dystroglycan N-terminal domain enables LARGE1 to extend matriglycan on α-dystroglycan and prevents muscular dystrophy” (bioRxiv, 2022).
